# Laboratory results as given in the RNAGym collection of RNA variant scans (doi:10.7554/elife.80360).
# B1: HDV Ribozyme (parent)
# chain: GGCCGGCAUGGUCCCAGCCUCCUCGCUGGCGCCGGCUGGGCAACAUUCCGAGGGGACCGUCCCCUCGGUAAUGGCGAAUGGGACCCA
# Variants of: B1
# Test: self-cleavage, relative activity (ratio to wild type); higher = more cleavage; co-transcriptional
row,Variant,self-cleavage
1,U12A C19G,0
2,U12C G38C,0.0475
3,U12C G38A,0.0875
4,U12A G17U,0.108
5,G11U A83C,0.119
6,U12A U69A,0.346
7,G11U U79G,0.231
8,G11U U79A,0.148
9,U12G A70C,0.462
10,U12C G35A,0.0723
11,U12C G35U,0
12,U12C A51U,0.359
13,U12C U47A,0.289
14,U12C G67U,0.38
15,U12A C33U,0.44
16,U12A C33A,0.0604
17,G11U U37C,0.208
18,G11U C48G,0.212
19,U12A G81C,0.0723
20,U12A G81U,0.122
21,U12C C32U,0.135
22,U12C C32G,0
23,U12A U65A,0.431
24,U12A C22U,0.0426

row,Variant,self-cleavage
1,U12A C22A,0
2,G11U G38U,0.0961
3,U12C A42G,0.0831
4,U12C A87G,0.369
5,U12C A87C,0.479
6,U12C C19U,0.0415
7,U12C C19G,0.0723
8,G11U G40A,0.387
9,U12C U37C,0.35
10,U12C U37G,0.332
11,U12C U37A,0.147
12,G11U G82A,0.0678
13,G11U G82C,0.117
14,U12G A56U,1.22
15,U12G A56G,0.767
16,U12C U27C,0.222
17,U12C U27A,0.506
18,U12C C75A,0.166
19,U12C C75U,0.104
20,U12C C75G,0.166
21,U12A U47G,0.262
22,U12A U47C,0.332
23,U12A A87U,0.262
24,U12A A87G,0.115

row,Variant,self-cleavage
1,U12A A87C,0.251
2,U12C G53U,0.427
3,U12A C61U,0.469
4,U12A C61G,0.158
5,U12C C21A,0.0573
6,U12C C21U,0
7,U12C C21G,0.0791
8,G11U G35C,0.0449
9,G11U G35A,0.241
10,U12C A16G,0
11,U12A U72G,0.185
12,U12A G50C,0.332
13,U12C U60A,0.145
14,U12A C48U,0.277
15,U12A C48A,0.244
16,U12C C85A,0.185
17,U12C C85U,0
18,U12G A71G,0.594
19,U12G A71C,0.712
20,U12C G68U,0.284
21,U12C C18G,0
22,U12C C18U,0.111
23,U12C U69C,0.391
24,U12C U69G,0.485

row,Variant,self-cleavage
1,G11U U23G,0.134
2,U12A A56C,0.262
3,U12A A56G,0.196
4,U12A A56U,0.403
5,G11U G53C,0.284
6,G11U G53U,0.385
7,G11U C13A,0.197
8,G11U C13G,0.0831
9,U12A G54A,0.306
10,G11U C15G,0.166
11,U12A G53A,0.403
12,U12A G53C,0.475
13,G11U G55A,0.463
14,G11U G55U,0.436
15,G11U G55C,0.35
16,U12C G50A,0.359
17,U12C G50U,0.332
18,G11U U27C,0.388
19,U12A C63G,0.293
20,U12A G35A,0.0875
21,U12A G35U,0.0225
22,U12A G35C,0.142
23,U12C C57U,0.293
24,G11U G74A,0.114

row,Variant,self-cleavage
1,G11U G74C,0.0845
2,U12A C14U,0.332
3,U12C C84U,0.208
4,U12C C84A,0.222
5,U12A A43G,0.0831
6,U12A A43C,0.161
7,G11U C64U,0.519
8,U12G A78C,0.0594
9,U12A G74C,0.135
10,U12A G74A,0.128
11,U12A C58U,0.302
12,U12C G59U,0.135
13,U12C G59C,0.415
14,U12C G73A,0.289
15,U12A G80C,0.0852
16,G11U U65C,0.19
17,G11U U65G,0.542
18,G11U C24A,0.112
19,U12C G34U,0.0396
20,U12C G34A,0.0692
21,G11U G68A,0.205
22,G11U G68C,0.297
23,G11U G68U,0.17
24,U12C G39A,0.106

row,Variant,self-cleavage
1,U12C G39C,0
2,U12C C36A,0.142
3,U12A G82C,0.302
4,U12A G82U,0.161
5,G11U C32A,0.0545
6,U12C G55U,0.59
7,U12C G55A,0.237
8,U12C U46C,0.101
9,U12C C41G,0.289
10,U12C U72G,0.128
11,U12C C58G,0.208
12,U12C C58U,0.222
13,U12A G52C,0.453
14,U12C G74C,0
15,U12C G74A,0.0519
16,G11U C66A,0.31
17,U12A G39C,0.0594
18,U12A G39U,0.0489
19,U12A A70U,0.332
20,U12A A70G,0.277
21,U12C A56G,0.623
22,U12C C62G,0.123
23,G11U G52A,0.375
24,G11U G52C,0.218

row,Variant,self-cleavage
1,U12C U23G,0.208
2,U12C U23C,0.755
3,U12A C41A,0.437
4,U12A C36G,0.0707
5,U12A C36A,0.0992
6,U12C G76U,0.489
7,U12C C86G,0.104
8,U12C C14A,0.18
9,U12C C14G,0.229
10,U12C C14U,0.277
11,U12A U46G,0.104
12,U12A C84G,0.554
13,U12A C84U,0.519
14,U12C U20C,0
15,U12C U20G,0.0831
16,U12A G40C,0.219
17,U12A G40U,0.111
18,U12A G40A,0.374
19,G11U C61G,0.315
20,G11U C61U,0.443
21,G11U C61A,0.355
22,U12C C66A,0.332
23,U12C C66U,0.655
